# Values joined by “and” are separate entries in the source; they are usually repeats but may differ in a detail not shown here. Equal values may be shown once. Read-outs that look alike come from different tables or passages of the source.
# Assays:
# [1] = biological target: P1-PE (HIV-1 clade B HXB2) (UniProt P04578)
# [2] = biological target: P1 (aa 630-685) clade B HXB2 HIV-1 (HIV-1 clade B HXB2) (UniProt P04578); test: ELISA on coated peptide (FIG. 1)
# [3] = biological target: P1 (aa 630-685) clade B HXB2 HIV-1 (HIV-1 clade B HXB2) (UniProt P04578); test: ELISA, P1 without lipid, nonlinear regression
# [4] = biological target: P1-PE (HIV-1 clade B HXB2) (UniProt P04578); test: ELISA, P1-PE in raft liposomes R2 (P1:lipids 1 for 20), nonlinear regression
# [5] = biological target: P1-PE (HIV-1 clade B HXB2) (UniProt P04578); test: ELISA, P1-PE in raft liposomes R1 (P1:lipids 1 for 100), nonlinear regression
# [6] = biological target: P1-PE (HIV-1 clade B HXB2) (UniProt P04578); test: ELISA, P1-PE in viral liposomes V2 (P1:lipids 1 for 20), nonlinear regression
# [7] = biological target: P1-PE (HIV-1 clade B HXB2) (UniProt P04578); test: ELISA, P1-PE in viral liposomes V1 (P1:lipids 1 for 100), nonlinear regression
Substance,Kd [1],antibody concentration of equivalent binding activity [2] [nM],Kd [3] [nM],Kd [4] [nM],Kd [5] [nM],Kd [6] [nM],Kd [7] [nM]
2F5 IgG1 (antibody),1.33 nM and 0.69 nM,6.25,7.38,0.51,0.5,0.41,0.31
2F5 IgA2 (antibody),0.15 nM and 0.21 nM,0.05,0.2,0.061,0.05,0.024,0.024

# Reference: US20150004190A1
